Test [1] has as its target HA-tagged human DAP12 (full length, both native cysteines), in 293T cells (human), O43914. The experiment in a line: non-reducing SDS-PAGE of disulfide-linked products after anti-HA IP. The note with it: remark: other sources report otherwise.
For test [2], the target named is HA-tagged human DAP12 wild type, in vitro translated with ER microsomes (human), O43914. The test is described as above. The note with it: remark: other sources report otherwise.

Where “and” joins values, the source holds several entries; their conditions need not be identical. Identical values can stand only once.

The values that follow come from article PMC4449314.

B1: HA-tagged human DAP12 (full length, both native cysteines), in 293T cells, O43914 22-113 (natural protein)
chain: LRPVQAQAQSDCSCSTVSPGVLAGIVMGDLVLTVLIALAVYFLGRLVPRGRGAAEAATRKQRITETESPYQELQGQRSDVYSDLNTQRPYYK
With B1, the stoichiometry N in test [1] was 2 and 3 and 4.

B2: HA-tagged human DAP12 wild type, in vitro translated with ER microsomes, O43914 22-113 (natural protein)
chain: B1 chain
modifications: here or on the partner: 35S-methionine/cysteine labelled; 35S-methionine/cysteine labelled
Regarding B2, the stoichiometry N in test [2] was 3 and 4.
